B1: POLE2 (natural protein, human)
chain: MAPERLRSRALSAFKLRGLLLRGEAIKYLTEALQSISELELEDKLEKIINAVEKQPLSSNMIERSVVEAAVQECSQSVDETIEHVFNIIGAFDIPRFVYNSERKKFLPLLMTNHPAPNLFGTPRDKAEMFRERYTILHQRTHRHELFTPPVIGSHPDESGSKFQLKTIETLLGSTTKIGDAIVLGMITQLKEGKFFLEDPTGTVQLDLSKAQFHSGLYTEACFVLAEGWFEDQVFHVNAFGFPPTEPSSTTRAYYGNINFFGGPSNTSVKTSAKLKQLEEENKDAMFVFLSDVWLDQVEVLEKLRIMFAGYSPAPPTCFILCGNFSSAPYGKNQVQALKDSLKTLADIICEYPDIHQSSRFVFVPGPEDPGFGSILPRPPLAESITNEFRQRVPFSVFTTNPCRIQYCTQEITVFREDLVNKMCRNCVRFPSSNLAIPNHFVKTILSQGHLTPLPLYVCPVYWAYDYALRVYPVPDLLVIADKYDPFTTTNTECLCINPGSFPRSGFSFKVFYPSNKTVEDSKLQGF
notes: POLE2, human; Stood in the structure as a subunit of m2; residues 1-527 modelled; source: Hi5 insect cells, purified as a subunit of Pol ε

Legend:
POLE2 = molecular target: B1; experiment: cryo-EM structure; replisome reconstituted on fork DNA with AMP-PNP, isolated on a glycerol gradient with glutaraldehyde and BS3; 3.2 Å overall; a sample without CLASPIN solved at 3.4 Å; settings: both partners purified
MCM5 = molecular target: T1, MCM5 (human, UniProt P33992 1-734); experiment: as above; settings: both partners purified
T1 construct: MCM5, human; Stood in the structure as a subunit of m1; source: Hi5 insect cells, purified as a subunit of hsCMG
T1 sequence: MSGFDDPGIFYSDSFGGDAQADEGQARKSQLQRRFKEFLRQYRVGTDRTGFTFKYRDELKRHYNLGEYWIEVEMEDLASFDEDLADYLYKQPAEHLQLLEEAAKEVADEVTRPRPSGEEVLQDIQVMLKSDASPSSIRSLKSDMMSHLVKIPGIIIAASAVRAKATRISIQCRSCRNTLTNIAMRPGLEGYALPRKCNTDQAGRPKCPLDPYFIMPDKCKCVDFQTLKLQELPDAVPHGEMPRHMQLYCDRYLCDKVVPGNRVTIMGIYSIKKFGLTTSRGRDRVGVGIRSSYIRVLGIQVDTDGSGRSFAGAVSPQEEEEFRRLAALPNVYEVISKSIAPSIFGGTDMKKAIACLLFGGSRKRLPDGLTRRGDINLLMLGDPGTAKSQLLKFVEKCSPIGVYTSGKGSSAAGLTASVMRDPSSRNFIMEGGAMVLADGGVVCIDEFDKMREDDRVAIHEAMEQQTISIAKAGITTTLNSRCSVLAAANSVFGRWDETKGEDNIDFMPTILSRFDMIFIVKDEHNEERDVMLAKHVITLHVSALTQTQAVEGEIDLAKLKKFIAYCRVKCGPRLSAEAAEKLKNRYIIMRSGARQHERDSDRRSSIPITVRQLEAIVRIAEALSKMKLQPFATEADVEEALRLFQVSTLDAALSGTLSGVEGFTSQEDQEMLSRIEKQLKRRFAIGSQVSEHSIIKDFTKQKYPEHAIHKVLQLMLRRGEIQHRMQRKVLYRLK

Binder | binding result (POLE2) | binding result (MCM5)
PSF1 (natural protein, human, PSF1 (GINS subunit), human; Stood in the structure as a subunit of m1; also called GINS subunit PSF1; source: Hi5 insect cells, purified as a subunit of hsCMG) MFCEKAMELIRELHRAPEGQLPAFNEDGLRQVLEEMKALYEQNQSDVNEAKSGGRSDLIPTIKFRHCSLLRNRRCTVAYLYDRLLRIRALRWEYGSVLPNALRFHMAAEEMEWFNNYKRSLATYMRSLGGDEGLDITQDMKPPKSLYIEVRCLKDYGEFEVDDGTSVLLKKNSQHFLPRWKCEQLIRQGVLEHILS | binds | 
B1 |  | binds
